From US20240043505A1 (UNIVERSITY OF PITTSBURGH OF THE COMMONWEALTH SYSTEM OF …, published 2024)
Where a chain is given by its changes, count along the chain named.

B1: Nb63 (VHH)
VHH: QVQLVESGGGLVQAGGSLRLSCVASGSGFEPNAMGWYRQAPGKQRELVAGITSGGNANYADSVKGRFTISRDNVKNTVYLQMNSLKPEDTAVYYCQGPACSGSGCRNYWGQGTQVTVSS
B2: Nb94 (VHH)
VHH: QVQLVESGGGLVQAGGSLRLSCTASGGTFRSFTMAWFRQAPGKEREFVATLSWTGVGTYYADSVKGRFTISRDIAKNTVYLEMNSLIPEDTAVYYCAASPYTYSLLSRTGDYGYWGQGTQVTVSS
B3: Nb55 (VHH)
VHH: DVQLVESGGGLVQAGGSLRLSCAASGRTFGSTMAWFRQAPGKERDFVAAITWSADRISYADSVKGRFTISRDNDKNIVHLQMNSLKPEDTAVYVCAARASSNTYDDPRSFAFWGQGTQVTVSS
B4: Nb43 (VHH)
VHH: EVQLVESGGGLVQAGGSLRLTCAASGRTFSSSTMDMGWFRQAPGKEREFVAVDAWNDGRTYYADSVKGRFTISRDNAKNTLYLQMNSLKPEDTAIYYCNLRQGCSYNGCDEYWGQGTQVTVSS
B5: Nb74 (VHH)
VHH: HVQLVESGGGLVQAGGSLRLSCAASGRTFSSHAMAWFRQAPGKEREFVAGISWSGPYYVDSVKGRFTISTDNAKNTVYLQMNSLTPEDTAVYYCASSRGPNLYPHIGDVEYWGQGTQVTVSS
B6: Nb3 (VHH)
VHH: HVQLVESGGGLVQAGGSLRLSCVASGSGFEPNAMGWYRQAPGKQRELVAGITSGGNTNYADSVKGRFTISRDNVKNTVYLQMNSLKPEDTAVYYCNAVAPRINPRGSPTNYWGQGTQVTVSS
B7: Nb4 (VHH)
VHH: B6 VHH with H1Q, T57A, A99G, I102F
B8: Nb96 (VHH)
VHH: HVQLVESGGGLVQAGDSLRLSCAASGRDFSSYAMGWFRQAPGKEREFVGVISSGDVGTFYEDSVKGRFTISRDDAKNTVDLQMNSLKPEDTAVYYCAAALYVTSTRGSYAYWGQGTQVTVSS
B9: Nb2 (VHH)
VHH: QVQLVESGGGLVQAGGSLRLSCAASGRTFSIYNMGWFRQAPGKEREFVIHMNWSNGNTATAASVKDRFTISRDNAKNTVYLQMSSLKPEDTAVYYCHATTNDYDYWGQGTQVTVSS
B10: Nb93 (VHH)
VHH: EVQLVESGGGLVQPGGSLRLSCAASGFTFSSYAMSWVRQAPGKGREWVAGITPGSGTFYADSVKGRFTISRDNAKNTLSLEINSLKPEDTALYYCAKCRQEFSWDFSSRDPDDFDYWGQGTQVTVSS
B11: Nb90 (VHH)
VHH: HVQLVESGGGLVQAGGSLRLSCAVSGRTVSSYVMGWFRQAPGKEREFVAGIGRTGMTITADSVKGRFTISRDNAKNLVYLQMNSLKSEDTAVYWCAAGVRDFAPRIDSYDYWGQGTQVTVSS
B12: Nb10 (VHH)
VHH: DVQLVESGGGLVQAGGSLKLSCTASESTFNFNHIDWYRQAPGKQRESVAVITNTDVTNYADSVKGRFTISRDNAKNTVYLQMNSLKPEDTAVYLCNAWRFGPTGVKVDYWGQGTQVTVSS
B13: Nb18 (VHH)
VHH: DVQLVESGGGLVQAGGSLRLSCAASGRTFSSYNVGWFRQAPGKEREFVAFIRWSGTSTYYADSVKGRFTISRDNAKNTVYLQMNSLKPEDTAVYYCAATSRTMIHTSQAMPINWDYWGQGTQVTVSS
B14: Nb100 (VHH)
VHH: B13 VHH with D1E, R27L, V34M, N74T, P88L, A109T, P111R
B15: Nb84 (VHH)
VHH: B13 VHH with N33S, V34M, E89D, T99S, I104N, H105T, T106I, A109T, P111R
B16: Nb12 (VHH)
VHH: HVQLVESGGGLVQAGGSLRLTCAASGGTFSTSTMDMGWFRQAPGKEREFVAVDSWNDGRAYYADSVKGRFTISRDSAKTTLYLQMNSLKPEDTAVYYCAARTERGVYDYWGRGTQVTVSS
B17: Nb91 (VHH)
VHH: HVQLVESGGGLVQPGGSLRLSCAASGLTLNDYAIGWFRQAPGKEREGVSCISSSDGTTYYADSVKGRFTISRDNAKNTVYLQMNSLKPEDTAVYYCATDIAPFYCSWPLRTRLVEYWGQGTQVTVSS
B18: Nb76 (VHH)
VHH: DVQLVESGGGLVQAGGSLRLSCAVSGRTFSISTMGWFRQAPGKERLFVAGITWHDGSTNYADSVKGRFTISRDNAKNTVYLQMNSLKPEDTALYYCAARKSINYVQEYDYWGRGTQVTVSS
B19: Nb80 (VHH)
VHH: HVQLVESGGGLVQPGGSLRLSCAASGNFFLINVMSWWRQAPGNEHELHELVATITSDGRTNYGDAVQGRFTISRDNAKNTLYLQMNSLKPEDTAVYYCYAQGQGNREYWGQGTQVTVSS
B20: Nb24 (VHH)
VHH: QVQLVESGGGLVQAGGSLRLTCAASGGTFSTSTMDMGWFRQAPGKEREFVALDSWNGGRTYYADSVKGRFTISRDNAKNTLYLQMNSLKPEDTAVYYCAADTYSNYEKDDSWGYWGQGTQVTVSS
B21: Nb32 (VHH)
VHH: DVQLVESGGGLVQAGGSLRLSCAASGRTFSSDTMDMGWFRQAPGKEREFVALHSWNGGKTYYADSVKGRFTISRDNAKNTLYLQMNNLKPEDTAVYYCAAETYTLYEKDSSWGYWGQGTQVTVSS
B22: Nb26 (VHH)
VHH: B20 VHH with Q1H, G27R, T31I, L52A, S54A, G57D, A99T, E107K
B23: Nb29 (VHH)
VHH: B20 VHH with Q1H, L52V, G57D, T60A, D101E, D109A, D110Y
B24: Nb62 (VHH)
VHH: HVQLVESGGGLVQAGGSLRLTCAASGRTFSSSTMDMGWFRQAPGKEREFVAVDAWNDGRTYYADSVKGRFTISRDNAKNTLYLQMNSLKPGDTAVYYCHAVDVSVGGDYWGQGTQVTVSS
B25: Nb60 (VHH)
VHH: HVQLVESGGGLVQAGDSLRLSCAASERTNINYAMGWFRQAPGKERDFVAAIGWNGSIIKYAESVKGRFTISRDDAKNTVSLQMNSLKPEDTAVYYCAARIGSIANLQPREYEFAYWGQGTQVTVSS
B26: Nb58 (VHH)
VHH: QVQLVESGGGLVQAGGSLRLSCAASGRDFSSTVMGWFRQAPGKERELVAWMTVTYDITYYADSVKGRFTISKDNAKNTVYLQANSLKPDDTAVYYCASGALRVGSFSPDYWGQGTQVTVSS
B27: Nb46 (VHH)
VHH: QVQLVESGGGLVQAGGSLRLSCAVSGSTLGINAIGWYRQPPGKQRELVASISSLGTTLYAESVKGRFAISRDNAKNTGYLQMNSLKPDDTAVYYCNMRTPYMRDYWGQGTQVTVSS
B28: Nb39 (VHH)
VHH: QVQLVESGGGLVQAGGSLRLSCAASGRTFRFSAIDWYRQAPGQQREFVASISTSGRISYGHFVKGRFTISRDNAKNTMYLQMNSLKPEDTAVYYCHLAQPDVFGGGDYWGQGTQVTVSS
B29: Nb41 (VHH)
VHH: DVQLVESGGGLVQAGGSLRLSCAASGFTFSNYVMYWGRQAPGKGREWVSGIDSDGSDTAYASSVKGRFTISRDNAKKTLYLQMNDLKPEDTALYYCVKSKDRYGSPWTRSEFEDYWGQGTQVTVSS
B30: Nb102 (VHH)
VHH: QVQLVESGGGLVQAGGSLRLSCAASGRTFSNSHMGWFRQAPGKEREFVAVISRSGGSTLYADSVKGRFTISRDNAKNTVYLQMNSLKPEDTAVYYCAASRTAGLTSNRSLYDYWGRGTQVTVSS
B31: Nb6 (VHH)
VHH: HVQLVESGGGLVQAGGSLRLSCAASGRTFSTHATGWFRQAPGKEREFLATSVWLDDISRDSTYYAESVKGRFSISRDNAKDTVYLQMNSLKPEDTAVYYCAVKQRVGPGIMSAPTYDYWGQGTQVTVSS
B32: Nb37 (VHH)
VHH: QVQLVESGGGLVQTGGSLRLSCAASGRTFSNYVMGWFRQAPGKEREFVSSIEWNSENTFYANSVKGRFTISRDNAKNTVYLQMNSLKAEDTAVYYCAADRGSSYYYTRASEYTYWGQGTQVTVSS
B33: Nb42 (VHH)
VHH: HVQLVESGGGLVQAGESLRLSCVASGSIFSINAMGWFRQAPGKQRELVASISNIGTTIYAESVKGRFTISRDNAKNTADLQMNSLKPEDTAIYYCNLRQGCSYNGCDEYWGQGTQVTVSS
B34: Nb68 (VHH)
VHH: QVQLVESGGGLVQAGGSLRLSCAASGGTLRSYNMGWFRQGPGKEREFVAAISWTGLGTYYGDSVKGRFTISRDVIKNTLYLQMDSLKPEDTAIYYCAADSSTSRLHSAGSDYRYWGQGTQVTVSS
B35: Nb92 (VHH)
VHH: HVQLVESGGGLVQAGGSLRLSCAASGRTFSAYGMGWFRQAPGKEREFVAGIARSGSEYYGDSVKGRFTISRDNAKNTVYLQMASLKAEDTGVYYCAADPTILYHALSQRTQNYRYWGPGTQVTVSS
B36: Nb15 (VHH)
VHH: EVQLVESGGGLVAAGGSLRLSCVPSTNIFSANAMGWYRQAPGKQRELVASITSGGNTNYADSVKGRFTISRDNADTVILQMNSLKPEDTAVYYCKGTAYSTTYNSVRDYWGQGTQVTVSS

Molecular target: SARS-CoV-2 spike receptor-binding domain (RBD) (SARS-CoV-2, UniProt P0DTC2 319-541)
Experiment: indirect ELISA, RBD coated on plate, 4PL fit

| Binder | ELISA affinity |
| --- | --- |
| B1 | 0.84 nM |
| B2 | 0.5 nM |
| B3 | 2.24 nM |
| B4 | 664 nM |
| B5 | 67.1 nM |
| B6 | 0.48 nM |
| B7 | 0.67 nM |
| B8 | 0.04 nM |
| B9 | 4.82 nM |
| B10 | 1.15 nM |
| B11 | 4.03 nM |
| B12 | 0.24 nM |
| B13 | 0.57 nM |
| B14 | 1.04 nM |
| B15 | 0.53 nM |
| B16 | 539 nM |
| B17 | 1.28 nM |
| B18 | 0.17 nM |

| Binder | ELISA affinity |
| --- | --- |
| B19 | 5.09 nM |
| B20 | 0.77 nM |
| B21 | 2.17 nM |
| B22 | 0.92 nM |
| B23 | 1.25 nM |
| B24 | 85.7 nM |
| B25 | 138 nM |
| B26 | 2.68 nM |
| B27 | 25.9 nM |
| B28 | 1.49 nM |
| B29 | 0.2 nM |
| B30 | 28.4 nM |
| B31 | 0.57 nM |
| B32 | 0.38 nM |
| B33 | 0.66 nM |
| B34 | 6.11 nM |
| B35 | 4.92 nM |
| B36 | 0.47 nM |
